Data: patent US20140037667A1

Biological target: env polypeptide of the LR1-C1 isolate (HIV-1 (variant of clade B primary isolate AC10))
Assay: virion capture assay, titration of virions on 4E10-coated plates, p24 ELISA

## 4E10 antibody
  fold increase in affinity against the AC10 wild-type variant: 4 fold
